The values that follow come from PMC5992146.

A value given as a limit tells only on which side of the number the result lay.

Assay [1] deals with actin (UniProt P68135).
Assay [2] deals with actin (UniProt P68135). The assay is described as follows: co-sedimentation; MYO3A (0.5 µM) equilibrated with actin (0-60 µM) in KMg50 buffer (50 mM KCl, 1 mM EGTA, 1 mM MgCl2, 10 mM imidazole pH 7.0, 1 mM DTT) with ATP regeneration system, 1 mM ATP added, centrifuged 10 min at 25 °C; fraction bound from GFP fluorescence of the supernatant and from Coomassie SDS-PAGE, hyperbolic fit; steady-state actin affinity (K_Actin) in the presence of ATP.

For “MYO3AΔK 2IQ c-GFP L697W (from UniProt Q8NEV4-1 1-1616) (domain or fragment)”, in assay [1], the K (ATPase): actin concentration at which the steady-state actin-activated ATPase activity is one-half maximal (KMg50 buffer, 25 °C) was below 0.77 µM. In addition, the Kd in assay [2] was 2.21 µM.

As for “MYO3AΔK 2IQ c-GFP WT (from UniProt Q8NEV4-1 1-1616) (domain or fragment)”, the K (ATPase): actin concentration at which the steady-state actin-activated ATPase activity is one-half maximal (KMg50 buffer, 25 °C) in assay [1] was 1.93 µM. Also, the Kd in assay [2] came out at 4.69 µM.

Broadly, the Kd is the constant that tells how readily two partners part at equilibrium.
